Experimental data as given in publication PMC6158747.

Tested on: CytR DNA-binding domain
Experiment: fluorescence anisotropy
Conditions: Stopped-flow kinetics: 50 mM sodium phosphate, 30 mM NaCl, 1 mM EDTA, pH 6.0, 278 K, 300 nM Alexa-532 udp half-site, equilibrium isotherms at 293 K (buffer not …)

## udp half-site (Udp-Half)
  K half: 10 µM

## random DNA (Poly-AC DNA)
293 K, similar affinity to udp half-site
  K half: 10 µM

## PurR binding site (PurFO)
293 K, first of two overlapping titration profiles (K1/2,1)
  K half: 0.4 µM
